{"source": "patent US20030068675", "about": "“Position dependent recognition of GNN nucleotide triplets by zinc fingers” (published 2003)", "binders": {"B1": {"name": "GCAGAGGCTG (dsDNA)", "DNA 1": "GCAGAGGCTG", "DNA 2": "CAGCCTCTGC"}, "B2": {"name": "TTGGCAGCCT (dsDNA)", "DNA 1": "TTGGCAGCCT", "DNA 2": "AGGCTGCCAA"}, "B3": {"name": "GCCGAGGCCG (dsDNA)", "DNA 1": "GCCGAGGCCG", "DNA 2": "CGGCCTCGGC"}, "B4": {"name": "GGGGGAGCTG (dsDNA)", "DNA 1": "GGGGGAGCTG", "DNA 2": "CAGCTCCCCC"}, "B5": {"name": "GCAGCGGTAG (dsDNA)", "DNA 1": "GCAGCGGTAG", "DNA 2": "CTACCGCTGC"}, "B6": {"name": "GCAGAGGCTC (dsDNA)", "DNA 1": "GCAGAGGCTC", "DNA 2": "GAGCCTCTGC"}, "B7": {"name": "GGGGCCCTGG (dsDNA)", "DNA 1": "GGGGCCCTGG", "DNA 2": "CCAGGGCCCC"}, "B8": {"name": "GAGTGTGAGG (dsDNA)", "DNA 1": "GAGTGTGAGG", "DNA 2": "CCTCACACTC"}, "B9": {"name": "GGAGAGTCGG (dsDNA)", "DNA 1": "GGAGAGTCGG", "DNA 2": "CCGACTCTCC"}, "B10": {"name": "GACTAGGACC (dsDNA)", "DNA 1": "GACTAGGACC", "DNA 2": "GGTCCTAGTC"}, "B11": {"name": "GGATGGGGG (dsDNA)", "DNA 1": "GGATGGGGG", "DNA 2": "CCCCCATCC"}, "B12": {"name": "GAGATGGATC (dsDNA)", "DNA 1": "GAGATGGATC", "DNA 2": "GATCCATCTC"}, "B13": {"name": "GCTGCAGGAG (dsDNA)", "DNA 1": "GCTGCAGGAG", "DNA 2": "CTCCTGCAGC"}}, "experiment_in_all_cases": "EMSA", "details_in_all_cases": "tags: MBP fusion", "key": {"ZFP SBS#797": {"target": "T1, ZFP SBS#797 (synthetic)", "T1 chain": "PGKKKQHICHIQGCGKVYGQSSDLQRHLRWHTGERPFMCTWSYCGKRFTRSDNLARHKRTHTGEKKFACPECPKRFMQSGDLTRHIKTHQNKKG", "outline": "(§1)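 Purified ZFP was titrated against labeled double-stranded target (1 nM or lower, at least 10-fold below expected Kd) carrying the natural binding site with flanks. Binding buffer was 10 mM Tris pH 7.5, 100 mM KCl, 1 mM MgCl2, 0.1 mM ZnCl2, 5 mM DTT, 10% glycerol, 0.02% BSA, with equilibration for at least 45 min. Bound and free target were separated on a 10% polyacrylamide gel.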"}, "ZFP SBS#764": {"target": "ZFP SBS#764 (synthetic)", "outline": "as §1"}, "ZFP SBS#800": {"target": "T2, ZFP SBS#800 (synthetic)", "T2 chain": "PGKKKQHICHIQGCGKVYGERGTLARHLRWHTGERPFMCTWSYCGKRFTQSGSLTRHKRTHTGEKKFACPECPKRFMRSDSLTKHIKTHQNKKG", "outline": "as §1"}, "ZFP SBS#770": {"target": "T3, ZFP SBS#770 (synthetic)", "T3 chain": "T2 chain with E20D, G22S, T23S, A25T", "outline": "as §1"}, "ZFP SBS#766": {"target": "T4, ZFP SBS#766 (synthetic)", "T4 chain": "T1 chain with Q20E, S21R, S22G, D23T, Q25A, Q78D, S79R, G80S", "outline": "as §1"}, "ZFP SBS#765": {"target": "T5, ZFP SBS#765 (synthetic)", "T5 chain": "T1 chain with Q20E, S21R, S22G, D23T, Q25A, Q78E, S79R, D81T, T83A", "outline": "as §1"}, "ZFP SBS#798": {"target": "ZFP SBS#798 (synthetic, UniProt P08047)", "sequence (P08047 other isoform, or with tags, fused parts or gaps)": "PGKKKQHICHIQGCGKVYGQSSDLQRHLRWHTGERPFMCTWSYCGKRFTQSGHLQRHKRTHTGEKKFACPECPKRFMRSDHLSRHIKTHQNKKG", "outline": "as §1"}, "ZFP SBS#768": {"target": "ZFP SBS#768 (synthetic)", "sequence (chain, as listed by the source)": "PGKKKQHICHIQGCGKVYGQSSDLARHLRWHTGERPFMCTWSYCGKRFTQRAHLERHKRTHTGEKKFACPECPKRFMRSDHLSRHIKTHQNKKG", "outline": "as §1"}, "ZFP SBS#767": {"target": "ZFP SBS#767 (synthetic, UniProt P08047)", "sequence (P08047 other isoform, or with tags, fused parts or gaps)": "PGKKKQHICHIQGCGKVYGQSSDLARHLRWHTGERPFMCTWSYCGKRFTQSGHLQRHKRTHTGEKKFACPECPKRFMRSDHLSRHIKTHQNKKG", "outline": "as §1"}, "ZFP SBS#799": {"target": "ZFP SBS#799 (synthetic)", "sequence (chain, as listed by the source)": "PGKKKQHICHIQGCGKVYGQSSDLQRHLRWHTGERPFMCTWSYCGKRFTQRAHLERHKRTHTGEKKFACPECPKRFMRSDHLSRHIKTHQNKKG", "outline": "as §1"}, "ZFP SBS#775": {"target": "T6, ZFP SBS#775 (synthetic)", "T6 chain": "T1 chain with S22G, D23A, Q25T, N53E, A55Q", "outline": "as §1"}, "ZFP SBS#774": {"target": "T7, ZFP SBS#774 (synthetic)", "T7 chain": "T1 chain with S21R, D23A, Q25A, N53E, A55Q", "outline": "as §1"}, "ZFP SBS#773": {"target": "ZFP SBS#773 (synthetic)", "outline": "as §1"}, "ZFP SBS#805": {"target": "T8, ZFP SBS#805 (synthetic)", "T8 chain": "T1 chain with S21R, D23A, Q25A, N53E, A55Q, D81S", "outline": "as §1"}, "ZFP SBS#763": {"target": "ZFP SBS#763 (synthetic)", "sequence (chain, as listed by the source)": "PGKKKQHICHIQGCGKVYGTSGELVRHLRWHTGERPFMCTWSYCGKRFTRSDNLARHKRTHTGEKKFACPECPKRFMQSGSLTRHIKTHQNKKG", "outline": "as §1"}, "ZFP SBS#849": {"target": "T9, ZFP SBS#849 (synthetic)", "T9 chain": "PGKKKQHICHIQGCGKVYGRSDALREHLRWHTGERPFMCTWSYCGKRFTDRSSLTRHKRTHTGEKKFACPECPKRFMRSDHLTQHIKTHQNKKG", "outline": "as §1"}, "ZFP SBS#837": {"target": "T10, ZFP SBS#837 (synthetic)", "T10 chain": "T9 chain with T83S, Q84R", "outline": "as §1"}, "ZFP SBS#838": {"target": "T11, ZFP SBS#838 (synthetic)", "T11 chain": "T9 chain with Q84A", "outline": "as §1"}, "ZFP SBS#839": {"target": "T12, ZFP SBS#839 (synthetic)", "T12 chain": "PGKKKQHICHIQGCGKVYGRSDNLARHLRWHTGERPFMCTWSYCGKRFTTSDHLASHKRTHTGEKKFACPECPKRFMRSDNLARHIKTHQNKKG", "outline": "as §1"}, "ZFP SBS#840": {"target": "T13, ZFP SBS#840 (synthetic)", "T13 chain": "T12 chain with T50M, D52H, A55K, S56T", "outline": "as §1"}, "ZFP SBS#841": {"target": "T14, ZFP SBS#841 (synthetic)", "T14 chain": "T12 chain with T50Q, D52S", "outline": "as §1"}, "ZFP SBS#831": {"target": "ZFP SBS#831 (synthetic)", "sequence (chain, as listed by the source)": "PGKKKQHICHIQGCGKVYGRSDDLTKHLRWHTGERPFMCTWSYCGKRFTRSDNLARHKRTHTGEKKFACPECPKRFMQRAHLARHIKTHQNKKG", "outline": "as §1"}, "ZFP SBS#830": {"target": "ZFP SBS#830 (synthetic)", "sequence (chain, as listed by the source)": "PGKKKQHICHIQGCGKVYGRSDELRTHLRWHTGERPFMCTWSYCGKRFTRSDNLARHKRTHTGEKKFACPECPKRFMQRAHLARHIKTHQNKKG", "outline": "as §1"}, "ZFP SBS#834": {"target": "T15, ZFP SBS#834 (synthetic)", "T15 chain": "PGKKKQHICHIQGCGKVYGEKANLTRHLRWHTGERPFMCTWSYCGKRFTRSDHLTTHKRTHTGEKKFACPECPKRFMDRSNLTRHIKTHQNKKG", "outline": "as §1"}, "ZFP SBS#833": {"target": "T16, ZFP SBS#833 (synthetic)", "T16 chain": "T15 chain with H53N, T56K", "outline": "as §1"}, "ZFP SBS#832": {"target": "T17, ZFP SBS#832 (synthetic)", "T17 chain": "T15 chain with H53N", "outline": "as §1"}, "ZFP SBS#253": {"target": "ZFP SBS#253 (synthetic)", "outline": "as §1"}, "ZFP SBS#845": {"target": "ZFP SBS#845 (synthetic)", "sequence (chain, as listed by the source)": "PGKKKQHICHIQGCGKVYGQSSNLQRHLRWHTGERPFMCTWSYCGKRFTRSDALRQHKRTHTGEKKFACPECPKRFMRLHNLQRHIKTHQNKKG", "outline": "as §1"}, "ZFP SBS#851": {"target": "T18, ZFP SBS#851 (synthetic)", "T18 chain": "T1 chain with D23N, S51R, N53V, A55M, R56N, Q78R, S79L, G80H, D81N, T83Q", "outline": "as §1"}, "ZFP SBS#844": {"target": "ZFP SBS#844 (synthetic)", "sequence (chain, as listed by the source)": "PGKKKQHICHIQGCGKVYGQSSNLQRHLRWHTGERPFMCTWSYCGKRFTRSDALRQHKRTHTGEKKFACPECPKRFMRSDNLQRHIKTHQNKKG", "outline": "as §1"}, "ZFP SBS#846": {"target": "T19, ZFP SBS#846 (synthetic)", "T19 chain": "T1 chain with D23N, S51R, N53V, A55M, R56N, Q78R, G80D, D81N, T83Q", "outline": "as §1"}, "ZFP SBS#685": {"target": "ZFP SBS#685 (synthetic)", "sequence (chain, as listed by the source)": "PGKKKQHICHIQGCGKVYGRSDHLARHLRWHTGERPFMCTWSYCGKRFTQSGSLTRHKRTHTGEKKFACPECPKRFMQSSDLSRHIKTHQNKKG", "outline": "as §1"}, "ZFP SBS#682": {"target": "ZFP SBS#682 (synthetic)", "outline": "as §1"}, "ZFP SBS#681": {"target": "ZFP SBS#681 (synthetic)", "sequence (chain, as listed by the source)": "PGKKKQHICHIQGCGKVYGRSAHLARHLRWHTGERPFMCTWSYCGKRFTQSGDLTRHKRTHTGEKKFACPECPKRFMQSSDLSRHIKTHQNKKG", "outline": "as §1"}, "ZFP SBS#684": {"target": "ZFP SBS#684 (synthetic)", "sequence (chain, as listed by the source)": "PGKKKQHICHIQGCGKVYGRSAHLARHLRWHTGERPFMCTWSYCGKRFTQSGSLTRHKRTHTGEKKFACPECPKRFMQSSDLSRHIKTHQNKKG", "outline": "as §1"}, "ZFP SBS#683": {"target": "T20, ZFP SBS#683 (synthetic)", "T20 chain": "T2 chain with E20Q, R21S, T23H, R78Q, D80S, S81D, T83S, K84R", "outline": "as §1"}}, "note": "Numbering of substitutions follows the chain as printed."}
{"binder": "B1", "values": [{"measurement": "Kd", "setting": "ZFP SBS#797", "value": 17.5, "unit": "nM"}, {"measurement": "Kd", "setting": "ZFP SBS#764", "value": 255, "unit": "nM"}]}
{"binder": "B2", "values": [{"measurement": "Kd", "setting": "ZFP SBS#800", "value": 400, "unit": "nM"}, {"measurement": "Kd", "setting": "ZFP SBS#770", "value": 325, "unit": "nM"}]}
{"binder": "B3", "values": [{"measurement": "Kd", "setting": "ZFP SBS#766", "value": 262, "unit": "nM"}, {"measurement": "Kd", "setting": "ZFP SBS#765", "value": 262, "unit": "nM"}]}
{"binder": "B4", "values": [{"measurement": "Kd", "setting": "ZFP SBS#798", "value": 3, "unit": "nM"}, {"measurement": "Kd", "setting": "ZFP SBS#768", "value": 2000, "unit": "nM"}, {"measurement": "Kd", "setting": "ZFP SBS#767", "value": 335, "unit": "nM"}, {"measurement": "Kd", "setting": "ZFP SBS#799", "value": 1.85, "unit": "nM"}]}
{"binder": "B5", "values": [{"measurement": "Kd", "setting": "ZFP SBS#775", "value": 265, "unit": "nM"}, {"measurement": "Kd", "setting": "ZFP SBS#774", "value": 258, "unit": "nM"}, {"measurement": "Kd", "setting": "ZFP SBS#773", "value": 1250, "unit": "nM"}, {"measurement": "Kd", "setting": "ZFP SBS#805", "value": 500, "unit": "nM"}]}
{"binder": "B6", "values": [{"measurement": "Kd", "setting": "ZFP SBS#763", "value": 275, "unit": "nM"}]}
{"binder": "B7", "values": [{"measurement": "Kd", "setting": "ZFP SBS#849", "value": 29.1, "unit": "nM"}, {"measurement": "Kd", "setting": "ZFP SBS#837", "value": 222, "unit": "nM"}, {"measurement": "Kd", "setting": "ZFP SBS#838", "value": 300, "unit": "nM"}]}
{"binder": "B8", "values": [{"measurement": "Kd", "setting": "ZFP SBS#839", "value": 625, "unit": "nM"}, {"measurement": "Kd", "setting": "ZFP SBS#840", "value": 625, "unit": "nM"}, {"measurement": "Kd", "setting": "ZFP SBS#841", "value": 300, "unit": "nM"}]}
{"binder": "B9", "values": [{"measurement": "Kd", "setting": "ZFP SBS#831", "value": 700, "unit": "nM"}, {"measurement": "Kd", "setting": "ZFP SBS#830", "value": 683, "unit": "nM"}]}
{"binder": "B10", "values": [{"measurement": "Kd", "setting": "ZFP SBS#834", "value": 186, "unit": "nM"}, {"measurement": "Kd", "setting": "ZFP SBS#833", "value": 136, "unit": "nM"}, {"measurement": "Kd", "setting": "ZFP SBS#832", "value": 408, "unit": "nM"}]}
{"binder": "B11", "values": [{"measurement": "Kd", "setting": "ZFP SBS#253", "value": 0.75, "unit": "nM"}]}
{"binder": "B12", "values": [{"measurement": "Kd", "setting": "ZFP SBS#845", "value": 112, "unit": "nM"}, {"measurement": "Kd", "setting": "ZFP SBS#851", "value": 74, "unit": "nM"}, {"measurement": "Kd", "setting": "ZFP SBS#844", "value": 444, "unit": "nM"}, {"measurement": "Kd", "setting": "ZFP SBS#846", "value": 890, "unit": "nM"}]}
{"binder": "B13", "values": [{"measurement": "Kd", "setting": "ZFP SBS#685", "value": 150, "unit": "nM"}, {"measurement": "Kd", "setting": "ZFP SBS#682", "value": 90, "unit": "nM"}, {"measurement": "Kd", "setting": "ZFP SBS#681", "value": 3000, "unit": "nM"}, {"measurement": "Kd", "setting": "ZFP SBS#684", "value": 850, "unit": "nM"}, {"measurement": "Kd", "setting": "ZFP SBS#683", "value": 500, "unit": "nM"}]}
